Assay results published in patent US20110027235.

Assays:
[1] = test system: ZFN 16234 (OCT4 pair 3, L) (synthetic); assay: cell_activity; conditions: ZFN pair 3 with 16233, 2.5 ug, BG01 hESC; only 2 clones; 0% at 10 ug (1 clone); labelled pair 2 in Table 3
[2] = test system: ZFN 16233 (OCT4 pair 3, R) (synthetic); assay: cell_activity; conditions: ZFN pair 3 with 16234, 2.5 ug, BG01 hESC; only 2 clones; 0% at 10 ug (1 clone); labelled pair 2 in Table 3

| Sequence | activity (% targeting efficiency) [1] | activity (% targeting efficiency) [2] |
| --- | --- | --- |
| CCCAGGAGAGGAGCAGGCAGGGTCAGCT (double strand) [OCT4 target of 16234] | 50 | – |
| GCCAGGTCTGGGCAGCTGCAGGTGACCA (double strand) [OCT4 target of 16233] | – | 50 |
